# Data taken from patent US20020157120A1 (University of California, published 2002).
# Target: the molecule itself
# Test: Self-association (oligomer dissociation), inferred from FCS translational diffusion at about 1 nM dsRed
# Source text: Fluorescence was collected through the same objective, a dichroic mirror, and 525+/−50 nm (citrine) or 580+/−50 nm (dsRed) filters and focused by a 150-mm achromat into an optical fiber ([…]). The fluorescence signal was detected by a fiber-coupled avalanche photodiode (APD; SPCM-AQ-141-FC; EG & G, Salem, Mass.). The APD signal was processed by using a correlator card (ALV5000; ALV Laser, Germany), and correlation curves were fitted by using the following function (Schwille et al., supra, 2000):
# Within experimental uncertainty, our estimated rotational time (i.e., protein volume) agrees with the tetramer hypothesis of dsRed configuration.
protein,measurement,value
"Discosoma red fluorescent protein, dsRed (other, Wild-type dsRed (CLONTECH DNA) cloned into pRSETB, made in JM109(DE3) E. coli and purified on NiNTA-agarose; The entries describe self-association of dsRed subunits; also called red fluorescent protein (dsRed) from coral; not shown: N-terminal tag from vector pRSETB (protein purified by nickel chelate chromatography)) MRSSKNVIKEFMRFKVRMEGTVNGHEFEIEGEGEGRPYEGHNTVKLKVTKGGPLPFAWDILSPQFQYGSKVYVKHPADIPDYKKLSFPEGFKWERVMNFEDGGVVTVTQDSSLQDGCFIYKVKFIGVNFPSDGPVMQKKTMGWEASTERLYPRDGVLKGEIHKALKLKDGGHYLVEFKSIYMAKKPVQLPGYYYVDSKLDITSHNEDYTIVEQYERTEGRHHLFL",Kd,≤ 1 nM
